Measured values: patent US7510708B2, “Disruption of the REG pathway” (Washington University, priority 2003, dated 2009)

How the values were obtained:
[1] = tested on: colon cancer cell lines (e.g. HT29, SW480, T84); test: Upregulation of mRNA of other Reg family members in colon cancer cell lines; assay type: cell-based; settings: FIG. 33
From the text: One explanation for this finding could be that a single Reg protein can upregulate expression of other members of the Reg family.

[2] = tested on: HT-29 cells; test: Bcl-xl and Bcl-2 expression after recombinant Reg Iα treatment; assay type: cell-based; settings: FIG. 29 and 30
Experimental: Additional colorectal cell lines were also examined to determine if this was a generalized effect on gastrointestinal cells. […] To determine if the increases in Bcl-2 mRNA also were associated with changes in Bcl-2 protein expression, Western blotting was performed on cell lysates taken at various times following Reg treatment.

[3] = tested on: Akt; test: Activation of the Akt pathway by phosphorylation in cancer cell lines; assay type: cell-based; settings: nanomolar concentrations; HCT116, HT29, N87 cells; FIGS. 19 and 20
From the text: One kinase responsible for protection against apoptosis in tumor cells may be Akt/protein kinase B. Akt, also referred to as Rac, regulates the balance between survival and apoptosis by several mechanisms. Akt may regulate the expression of anti-apoptotic proteins. Because of the effect of Reg on the regulation of Bcl-2 (and Bcl-xl, discussed later), we examined the effects of recombinant Reg IV and Reg Iα on the activation of the Akt pathway. […] Activated Akt has known pleiotropic effects (beyond effects on Bcl-2 family gene expression), reducing the amount of apoptosis occurring either at baseline or in response to a known proapoptotic stimulus.

[4] = tested on: HT29; test: Caspase activity in HT29 lysates following oxidative stress (hydrogen peroxide); assay type: cell-based; settings: nanomolar concentrations; HT29 lysates after hydrogen peroxide; FIG. 21
[5] = tested on: intestinal stem cells; test: Survival of intestinal stem cells following 13 Gy radiation; assay type: in vivo, mouse; settings: pretreatment, FIGS. 27 and 28
Experimental: Gamma irradiation is a well-defined pro-apoptotic stimulus and is a commonly applied experimental approach to study intestinal epithelial cell death. […] At 6 hours marked apoptosis is seen in the crypt epithelium. By 24 hours, there is a loss of epithelial proliferation. Regenerating crypts, counted at 84 hours, are reflective of a single surviving stem cell.
(§1) Stem cells and their immediate progeny are the only cells in the normal epithelium that are capable of continued proliferation. In this context, epithelial malignancies may reflect a form of disordered stem cell biology. FIGS. 27 and 28 show the effect of exogenous Reg proteins on the survival of intestinal stem cells following 13 Gy radiation. […] We therefore conducted experiments to see if exogenous Reg would promote the survival of colorectal adenocarcinoma cells in response to gamma radiation.

[6] = tested on: colorectal adenocarcinoma cells; test: Survival of colorectal adenocarcinoma cells in response to gamma radiation; assay type: cell-based; settings: nanomolar concentrations, FIGS. 31 and 32
From the text: as §1

| Molecule | mRNA coding for other members of the Reg gene family [1] | expression of Bcl-xl and Bcl-2 [2] | activation by phosphorylation of Akt [3] | caspase activity / protection against peroxide-induced apoptosis [4] | stem cell survival [5] | cell survival from gamma radiation [6] |
| --- | --- | --- | --- | --- | --- | --- |
| Reg III: Recombinant human Reg III (pancreatitis-associated protein) expressed by fermentation in Pichia pastoris (protein) EEPQRELPSARIRCPKGSKAYGSHCYALFLSPKSWTDADLACQKRPSGNLVSVLSGAEGSFVSSLVKSIGNSYSYVWIGLHDPTQGTEPNGEGWEWSSSDVMNYFAWERNPSTISSPGHCASLSRSTAFLRWKDYNCNVRLPYVCKFTD | upregulation of mRNA coding for other members of the Reg gene family |  |  |  |  |  |
| Reg Iα: Recombinant human Reg Iα protein expressed by fermentation in Pichia pastoris (protein) QEAQTELPQARISCPEGTNAYRSYCYYFNEDRETWVDADLYCQNMNSGNLVSVLTQAEGAFVASLIKESGTDDFNVWIGLHDPKKNRRWHWSSGSLVSYKSWGIGAPSSVNPGYCVSLTSSTGFQKWKDVPCEDKFSFVCKFKN | upregulation of mRNA coding for other members of the Reg gene family | increased expression of Bcl-xl and Bcl-2 | rapid activation by phosphorylation of Akt | reduced caspase activity | significantly increased stem cell survival | improved cell survival |
